In publication PMC5825201 (mAbs, 2018):

Biological target: endogenous human tissue factor on MDA-MB-231 breast cancer cells (Homo sapiens (MDA-MB-231 cells), UniProt P13726)
Test: flow cytometry on cells

Chain of endogenous human tissue factor on MDA-MB-231 breast cancer cells (P13726 33-295): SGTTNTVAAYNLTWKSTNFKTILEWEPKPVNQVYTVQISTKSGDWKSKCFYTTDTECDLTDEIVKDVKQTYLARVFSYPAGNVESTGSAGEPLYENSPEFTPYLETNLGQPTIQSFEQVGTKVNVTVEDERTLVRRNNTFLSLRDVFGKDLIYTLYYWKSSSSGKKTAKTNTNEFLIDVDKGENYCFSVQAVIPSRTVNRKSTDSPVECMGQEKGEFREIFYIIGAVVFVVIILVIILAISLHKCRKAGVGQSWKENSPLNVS

B1: chimeric mouse/human version of 10H10 mAb (antibody, V domains shown)
VH: QVHLQQSGAELMKPGASVKISCKASGYTFITYWIEWVKQRPGHGLEWIGDILPGSGSTNYNENFKGKATFTADSSSNTAYMQLSSLTSEDSAVYYCARSGYYGNSGFAYWGQGTLVTVSA
VL: DIVMTQSPSSLTVTAGEKVTMSCKSSQSLLSSGNQKNYLTWYQQIPGQPPKLLIYWASTRESGVPDRFTGSGSGTDFTLTINSVQAEDLAVYYCQNDYTYPLTFGAGTKLELK
cell binding (% to 10H10): 100%
